Assay [1] concerns the target asialotransferrin (human) (UniProt P02787). The experiment in a line: neuraminidized sample on M-LAC column, displacer fraction, peak area of peptide ….
Assay [2] concerns the target Alpha-1-acid-glycoprotein in neuraminidase-treated serum (human) (UniProt P02763). The description is as above.
The target in assay [3] is Inter-alpha-trypsin inhibitor (human). The experiment in a line: human serum on M-LAC column, displacer fraction, LC-MS/MS; smaller rank = more abundant.
Assay [4] has as its target … ZONE PROTEIN (human) (UniProt P20742). The assay is described as above.
The target in assay [5] is APOLIPOPROTEIN A-I (human) (UniProt P02647). The assay is described as follows: human serum on Con A/WGA/Jacalin column, lectin-specific displacer fraction, LC-MS/MS; grade = SEQUEST rank group (+ = ranks 1-5, ++++ = 16-20).
Another assay addresses SERO… (human) (UniProt P02787). The assay is described as above.
Assay [6] concerns the target … ZONE PROTEIN (human) (UniProt P20742). The assay is described as above.
Another assay deals with CERULOPLASMIN (human) (UniProt P00450). The description is as above.
Assay [7] addresses Pregnancy zone protein in fucosidase-treated serum (human) (UniProt P20742). The assay is described as follows: fucosidase-treated serum on M-LAC column, displacer fraction, extracted ion chromatogram of peptide … (so in the source).
In assay [8] the target is Beta-2-glycoprotein in neuraminidase-treated serum (human) (UniProt P02749). The assay is described as follows: neuraminidase-treated serum on M-LAC column, displacer fraction, LC-MS/MS; smaller rank = more abundant.
Chain of Beta-2-glycoprotein in neuraminidase-treated serum (human) (P02749 20-345 limits assumed): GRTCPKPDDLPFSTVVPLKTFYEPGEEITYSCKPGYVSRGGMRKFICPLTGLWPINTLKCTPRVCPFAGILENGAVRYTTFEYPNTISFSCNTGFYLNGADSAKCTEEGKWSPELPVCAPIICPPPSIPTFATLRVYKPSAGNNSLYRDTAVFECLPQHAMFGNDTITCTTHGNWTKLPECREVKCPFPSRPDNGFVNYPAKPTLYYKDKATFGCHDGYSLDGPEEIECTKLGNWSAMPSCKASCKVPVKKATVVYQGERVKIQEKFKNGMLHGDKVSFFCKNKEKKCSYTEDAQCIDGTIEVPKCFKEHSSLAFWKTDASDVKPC
Assay [9] addresses asialotransferrin (human) (UniProt P02787). Described as above.
Assay [10] deals with Alpha-2HS-glycoprotein in neuraminidase-treated serum (human) (UniProt P02765). Described as above.
Chain of Alpha-2HS-glycoprotein in neuraminidase-treated serum (human) (P02765 19-300 limits assumed, chain 1 of 2): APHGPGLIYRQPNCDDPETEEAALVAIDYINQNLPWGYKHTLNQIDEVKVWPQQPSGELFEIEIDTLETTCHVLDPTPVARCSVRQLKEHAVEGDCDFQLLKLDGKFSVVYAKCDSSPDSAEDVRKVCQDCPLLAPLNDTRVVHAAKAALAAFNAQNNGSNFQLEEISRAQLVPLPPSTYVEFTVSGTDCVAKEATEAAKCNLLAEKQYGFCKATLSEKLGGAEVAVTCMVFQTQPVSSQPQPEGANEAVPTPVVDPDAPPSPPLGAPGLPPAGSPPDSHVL
Chain of Alpha-2HS-glycoprotein in neuraminidase-treated serum (human) (P02765 341-367 limits assumed, chain 2 of 2): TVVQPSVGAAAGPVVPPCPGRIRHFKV
Assay [11] deals with Inter-alpha-trypsin inhibitor (human). The assay is described as follows: human serum on M-LAC column, displacer fraction, extracted ion chromatogram of peptide ….
The target of the next assay is HAPTOGLOBIN-2 (human) (UniProt P00738). The description is as above.
Assay [12] addresses Inter-alpha-trypsin inhibitor in fucosidase-treated serum (human). The assay is described as follows: fucosidase-treated serum on M-LAC column, displacer fraction, LC-MS/MS; smaller rank = more abundant.
The target of assay [13] is Pregnancy zone protein in fucosidase-treated serum (human) (UniProt P20742). Described as above.
Chain of Pregnancy zone protein in fucosidase-treated serum (human) (P20742 26-1482 limits assumed): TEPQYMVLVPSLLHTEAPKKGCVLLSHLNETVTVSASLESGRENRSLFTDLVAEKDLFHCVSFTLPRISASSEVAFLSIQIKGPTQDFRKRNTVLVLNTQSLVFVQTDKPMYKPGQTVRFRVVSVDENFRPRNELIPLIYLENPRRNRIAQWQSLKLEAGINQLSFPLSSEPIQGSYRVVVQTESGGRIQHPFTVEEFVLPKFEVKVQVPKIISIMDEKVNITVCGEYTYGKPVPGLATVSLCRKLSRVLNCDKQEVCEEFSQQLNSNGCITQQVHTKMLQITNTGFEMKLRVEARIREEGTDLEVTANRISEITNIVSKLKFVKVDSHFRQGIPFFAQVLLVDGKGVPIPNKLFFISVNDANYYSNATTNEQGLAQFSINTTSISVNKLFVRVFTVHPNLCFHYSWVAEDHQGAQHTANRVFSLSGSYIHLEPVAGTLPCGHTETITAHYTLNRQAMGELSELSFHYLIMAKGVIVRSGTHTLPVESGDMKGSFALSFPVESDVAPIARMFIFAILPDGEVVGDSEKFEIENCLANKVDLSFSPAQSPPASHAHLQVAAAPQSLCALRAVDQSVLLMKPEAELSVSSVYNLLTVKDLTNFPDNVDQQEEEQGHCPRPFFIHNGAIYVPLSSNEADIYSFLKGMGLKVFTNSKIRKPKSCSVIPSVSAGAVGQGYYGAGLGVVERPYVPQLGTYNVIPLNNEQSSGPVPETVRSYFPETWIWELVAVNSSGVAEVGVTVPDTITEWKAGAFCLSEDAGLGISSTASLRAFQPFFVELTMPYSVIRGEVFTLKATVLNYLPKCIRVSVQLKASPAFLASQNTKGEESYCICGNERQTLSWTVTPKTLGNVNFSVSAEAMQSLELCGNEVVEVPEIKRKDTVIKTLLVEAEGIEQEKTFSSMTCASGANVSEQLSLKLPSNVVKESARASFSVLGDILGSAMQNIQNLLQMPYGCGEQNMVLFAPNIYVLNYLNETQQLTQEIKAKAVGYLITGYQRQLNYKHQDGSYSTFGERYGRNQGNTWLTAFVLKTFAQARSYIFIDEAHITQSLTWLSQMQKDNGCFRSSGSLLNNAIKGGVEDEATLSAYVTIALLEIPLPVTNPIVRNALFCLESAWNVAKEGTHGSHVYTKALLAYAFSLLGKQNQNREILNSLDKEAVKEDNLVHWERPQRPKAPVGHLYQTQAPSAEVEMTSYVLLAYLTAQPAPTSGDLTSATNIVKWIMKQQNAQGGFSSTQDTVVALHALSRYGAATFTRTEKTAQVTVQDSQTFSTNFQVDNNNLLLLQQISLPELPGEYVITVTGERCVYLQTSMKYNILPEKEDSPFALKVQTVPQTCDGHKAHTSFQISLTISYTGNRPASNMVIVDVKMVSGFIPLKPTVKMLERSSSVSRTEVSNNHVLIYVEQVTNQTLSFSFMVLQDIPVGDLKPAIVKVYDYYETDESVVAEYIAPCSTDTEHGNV
The target in assay [14] is Inter-alpha-trypsin inhibitor in fucosidase-treated serum (human). The experiment in a line: fucosidase-treated serum on M-LAC column, displacer fraction, extracted ion chromatogram of peptide ….
The target in assay [15] is Beta-2-glycoprotein in neuraminidase-treated serum (human) (UniProt P02749). The experiment in a line: neuraminidase-treated serum on M-LAC column, displacer fraction, extracted ion chromatogram of peptide ….
Assay [16] deals with Alpha-1-acid-glycoprotein in neuraminidase-treated serum (human) (UniProt P02763). Described as above.
Chain of Alpha-1-acid-glycoprotein in neuraminidase-treated serum (human) (P02763 19-201 limits assumed): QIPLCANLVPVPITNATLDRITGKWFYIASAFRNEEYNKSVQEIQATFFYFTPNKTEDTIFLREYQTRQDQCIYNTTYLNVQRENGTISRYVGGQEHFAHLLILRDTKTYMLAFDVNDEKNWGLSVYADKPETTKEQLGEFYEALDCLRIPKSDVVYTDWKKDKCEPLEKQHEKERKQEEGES
In assay [17] the target is Alpha-2HS-glycoprotein in neuraminidase-treated serum (human) (UniProt P02765). The assay is described as above.
The target of assay [18] is Haptoglobin in neuraminidase-treated serum (human) (UniProt P00738). The assay is described as above.
Chain of Haptoglobin in neuraminidase-treated serum (human) (P00738 19-406 limits assumed): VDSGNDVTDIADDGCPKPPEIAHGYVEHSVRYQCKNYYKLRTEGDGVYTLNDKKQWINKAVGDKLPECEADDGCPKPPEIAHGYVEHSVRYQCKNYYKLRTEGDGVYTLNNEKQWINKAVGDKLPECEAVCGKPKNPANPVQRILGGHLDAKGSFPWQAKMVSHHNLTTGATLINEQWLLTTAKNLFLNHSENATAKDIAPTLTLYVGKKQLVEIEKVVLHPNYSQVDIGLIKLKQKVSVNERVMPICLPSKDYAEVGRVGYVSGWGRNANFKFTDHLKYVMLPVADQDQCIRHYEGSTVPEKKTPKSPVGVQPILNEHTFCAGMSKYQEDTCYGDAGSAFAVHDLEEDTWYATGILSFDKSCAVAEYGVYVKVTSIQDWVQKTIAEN
Assay [19] addresses IG ALPHA-1 CHAIN C REGION (human) (UniProt P01876). The assay is described as follows: human serum on M-LAC column, Jacalin displacer fraction, LC-MS/MS; smaller rank = more abundant.
In assay [20] the target is ALPHA-2-HS-GLYCOPROTEIN (human) (UniProt P02765). The assay is described as follows: human serum on Con A/WGA/Jacalin column, lectin-specific displacer fraction, LC-MS/MS; grade = SEQUEST rank group (+ = ranks 1-5, ++++ = 16-20).
Assay [21] has as its target IG ALPHA-1 CHAIN C REGION (human) (UniProt P01876). Described as above.
In assay [22] the target is asialotransferrin (human) (UniProt P02787). The assay is described as follows: neuraminidase-treated serum on M-LAC column, displacer fraction, extracted ion chromatogram of peptide ….
Chain of asialotransferrin (human) (P02787 20-698 limits assumed): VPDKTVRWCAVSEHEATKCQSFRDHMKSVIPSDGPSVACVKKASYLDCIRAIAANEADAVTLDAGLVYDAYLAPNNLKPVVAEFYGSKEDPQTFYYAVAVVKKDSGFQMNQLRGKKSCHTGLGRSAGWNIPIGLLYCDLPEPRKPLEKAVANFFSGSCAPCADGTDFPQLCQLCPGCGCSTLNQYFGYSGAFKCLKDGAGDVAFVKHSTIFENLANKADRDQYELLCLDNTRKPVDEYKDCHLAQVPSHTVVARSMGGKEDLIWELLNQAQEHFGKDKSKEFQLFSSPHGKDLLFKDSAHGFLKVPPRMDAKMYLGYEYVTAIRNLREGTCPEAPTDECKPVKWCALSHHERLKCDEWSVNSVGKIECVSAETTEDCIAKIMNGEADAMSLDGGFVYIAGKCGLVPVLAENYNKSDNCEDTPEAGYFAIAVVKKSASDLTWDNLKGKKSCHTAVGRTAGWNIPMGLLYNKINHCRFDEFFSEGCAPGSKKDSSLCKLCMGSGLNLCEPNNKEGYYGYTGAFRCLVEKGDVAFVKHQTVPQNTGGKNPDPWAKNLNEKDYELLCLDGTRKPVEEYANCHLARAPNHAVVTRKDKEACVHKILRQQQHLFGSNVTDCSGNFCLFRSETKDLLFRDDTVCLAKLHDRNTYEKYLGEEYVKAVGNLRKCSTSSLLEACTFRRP

Chain of … ZONE PROTEIN (human) (P20742 26-1482 limits assumed): as the sequence (P20742 26-1482 limits assumed) above

For the substance “Concanavalin A (Con A), agarose-bound (from UniProt P02866 30-281)”, the peptide peak area in displacer fraction in [1] was found to be 36; in assay [2], 10.7; in [7] it was 1.6e+07 counts; in [11], 500000 counts; with HAPTOGLOBIN-2 (human), 4e+07 counts; in assay [14], 0 counts. Moreover, the peptide peak area in displacer fraction in assay [15] worked out at 8.4e+06 counts; in assay [16], 1.1e+07 counts; in assay [17] it was 2.6e+06 counts; in assay [18], 4.7e+07 counts. In addition, the SEQUEST rank in displacer fraction in [3] was found to be 22; with … ZONE PROTEIN (human) [4] it was 34; in assay [8], 24; in [9] it was 2; in assay [10], 31; in [12] it was 13. For the same substance, the SEQUEST rank in displacer fraction in assay [13] came to 25. Further, the SEQUEST ranking (relative abundance in the Con A displacement fraction) in assay [5] was in the range of 11 to 15 rank; in the assay with SERO… (human), 1 to 5 rank; with … ZONE PROTEIN (human) [6] it was 16 to 20 rank; with CERULOPLASMIN (human), 16 to 20 rank.

“Jacalin lectin, agarose-bound (from UniProt P18670 1-133; P18671 1-20)”: the SEQUEST rank in displacer fraction in [19] came out at 1; in assay [8], 23; in assay [9] it was 1; in assay [10] it was 7. Besides, the peptide peak area in displacer fraction in [1] was determined as 28; in assay [2], 12.3; in assay [15], 3.8e+06 counts; in assay [22] (peptide at M/Z 530.2), 2.4e+07 counts; in [22] (peptide at M/Z 790.1), 8.3e+06 counts; in [16], 1.2e+07 counts. Moreover, the peptide peak area in displacer fraction in assay [17] is 7.4e+06 counts; in assay [18] it was 1.3e+07 counts. Further, the SEQUEST ranking (relative abundance in the Jacalin displacement fraction) in assay [20] fell in the range of 6 to 10 rank; with SERO… (human), 16 to 20 rank; in assay [21], 1 to 5 rank.

Regarding “wheat germ agglutinin (WGA), agarose-bound (from UniProt P10968 27-197)”, the peptide peak area in displacer fraction in assay [1] was 1.6; in assay [2] it was 0; in assay [7], 5.2e+06 counts; in [15], 0 counts; in [16] it was 0 counts; in [17], 900000 counts. The substance also had a peptide peak area in displacer fraction in assay [18] of 1.63e+08 counts. For the same substance, the SEQUEST rank in displacer fraction came to 7 with … ZONE PROTEIN (human) [4] and 17 in [13]. Further, the SEQUEST ranking (relative abundance in the WGA displacement fraction) fell in the range of 11 to 15 rank in assay [20] and 6 to 10 rank with … ZONE PROTEIN (human) [6].

For the origin of these results see US20090166224A1.
